Experiment [1] concerns the target Abdala (SARS-CoV-2 spike receptor-binding domain vaccine antigen produced in Pichia pastoris) (SARS-CoV-2 (Wuhan-Hu-1)) (UniProt P0DTC2). Put plainly: mass photometry.
Experiment [2] deals with monomeric ACE2 (a.a 19-611), C-terminally His-tagged (human) (UniProt Q9BYF1). Description: mass photometry.
Chain of monomeric ACE2 (a.a 19-611), C-terminally His-tagged (human) (Q9BYF1 19-611): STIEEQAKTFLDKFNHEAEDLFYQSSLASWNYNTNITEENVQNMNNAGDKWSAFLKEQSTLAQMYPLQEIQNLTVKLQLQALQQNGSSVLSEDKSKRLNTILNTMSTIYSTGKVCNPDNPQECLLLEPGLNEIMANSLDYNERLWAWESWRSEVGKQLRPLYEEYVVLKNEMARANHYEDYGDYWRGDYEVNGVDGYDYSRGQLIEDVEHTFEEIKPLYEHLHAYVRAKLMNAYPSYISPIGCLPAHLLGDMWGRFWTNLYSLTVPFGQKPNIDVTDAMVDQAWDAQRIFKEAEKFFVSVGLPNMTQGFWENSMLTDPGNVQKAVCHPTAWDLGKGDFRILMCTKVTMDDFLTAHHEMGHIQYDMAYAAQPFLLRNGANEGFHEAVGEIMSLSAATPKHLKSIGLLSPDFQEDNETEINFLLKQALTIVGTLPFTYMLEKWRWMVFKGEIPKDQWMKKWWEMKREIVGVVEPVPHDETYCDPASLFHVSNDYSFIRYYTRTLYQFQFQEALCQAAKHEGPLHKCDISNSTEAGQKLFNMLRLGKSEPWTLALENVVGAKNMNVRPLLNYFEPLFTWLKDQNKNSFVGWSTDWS

In experiment [1], “Abdala (SARS-CoV-2 spike receptor-binding domain vaccine antigen produced in Pichia pastoris) (from UniProt P0DTC2 319-541) (domain or fragment)” had a percent dimeric species of 5.6% and a stoichiometry N of 2. The Kd in experiment [2] amounted to 55.5 nM.
